The record followed here is patent US20120316071A1 (published 2012).

The target in test [1] is T1, rHuman P-Cadherin/Fc Chimera, CF (R&D Systems Cat#861-PC) (human, UniProt P22223 108-654).
T1 construct: Bought recombinant Fc chimera; Fc part of the bought chimera not given
In words: ECL Multispot (MSD) assay, antigen spotted on plate, 10 nM Fab; blank spot 302.

Test [2] has as its target T2, rHuman Erythropoietin R/Fc Chimera, CF (R&D Systems Cat#963-ER) (human, UniProt P19235 25-250).
T2 construct: Bought recombinant Fc chimera; also called EPO R; EPO R/Fc; Fc part of the bought chimera not given
T2 sequence (looked up): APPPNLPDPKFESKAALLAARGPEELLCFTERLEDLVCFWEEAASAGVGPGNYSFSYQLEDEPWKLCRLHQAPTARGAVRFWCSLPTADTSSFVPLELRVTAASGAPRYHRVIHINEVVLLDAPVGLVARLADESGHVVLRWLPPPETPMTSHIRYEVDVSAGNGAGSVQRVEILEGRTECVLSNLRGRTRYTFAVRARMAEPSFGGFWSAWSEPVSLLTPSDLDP
Described as above.

Test [3] addresses T3, rHuman Notch-1/Fc Chimera, CF (R&D Systems Cat#3647-TK) (human, UniProt P46531 19-526).
T3 construct: Bought recombinant Fc chimera; Fc part of the bought chimera not given
The description is as above.

Test [4] has as its target T4, rHuman HGF R/c-MET/Fc Chimera, CF (R&D Systems Cat#358-MT/CF) (human, UniProt P08581 25-932).
T4 construct: Bought recombinant Fc chimera; also called HGF R/Fc; hepatocyte growth factor receptor; Fc part of the bought chimera not given
Described as above.

The target of test [5] is T5, rHuman IGF-1 sR, CF (R&D Systems Cat#391-GR) (human, UniProt P08069 31-932).
T5 construct: Bought soluble receptor; also called insulin-like growth factor-1 soluble receptor
The description is as above.

In test [6] the target is T6, Recombinant Human DLL4 (R&D Systems Cat#1506-D4/CF) (human, UniProt Q9NR61 27-524).
T6 construct: Bought recombinant protein; also called delta-like protein 4; rHuman DLL4
The test is described as above.

Test [7] has as its target T7, rHuman EGF R/Fc Chimera, CF (R&D Systems Cat#344-ER) (human, UniProt P00533 25-645).
T7 construct: Bought recombinant Fc chimera; also called epidermal growth factor receptor; Fc part of the bought chimera not given
The description is as above.

The target of test [8] is T8, rHuman ErbB2/Fc Chimera, CF (R&D Systems Cat#1129-ER) (human, UniProt P04626 23-652).
T8 construct: Bought recombinant Fc chimera; also called human epidermal growth factor 2 receptor; Fc part of the bought chimera not given
The test is described as above.

Test [9] concerns the target T9, rHuman CD44/Fc Chimera, CF (R&D Systems Cat#3660-CD) (human, UniProt P16070 21-220).
T9 construct: Bought recombinant Fc chimera; Fc part of the bought chimera not given
The description is as above.

The target of test [10] is T1, rHuman P-Cadherin/Fc Chimera, CF (R&D …). As to the kind of experiment: ECL Multispot (MSD) assay, antigen spotted on plate, 10 nM Fab; blank spot 151.
Test [11] addresses T2, rHuman Erythropoietin R/Fc Chimera, CF …. The description is as above.
Test [12] deals with T3, rHuman Notch-1/Fc Chimera, CF (R&D …). The test is described as above.
Test [13] has as its target T4, rHuman HGF R/c-MET/Fc Chimera, CF (R&D …). Described as above.
The target in test [14] is T5, rHuman IGF-1 sR, CF (R&D Systems …). The description is as above.
Test [15] deals with T6, Recombinant Human DLL4 (R&D Systems …). The description is as above.
Test [16] addresses T7, rHuman EGF R/Fc Chimera, CF (R&D …). Described as above.
For test [17], the target named is T8, rHuman ErbB2/Fc Chimera, CF (R&D …). The description is as above.
Test [18] addresses T9, rHuman CD44/Fc Chimera, CF (R&D Systems …). The test is described as above.
In test [19] the target is T1, rHuman P-Cadherin/Fc Chimera, CF (R&D …). As to the kind of experiment: ECL Multispot (MSD) assay, antigen spotted on plate, 10 nM Fab; blank spot 367.
Test [20] has as its target T2, rHuman Erythropoietin R/Fc Chimera, CF …. The description is as above.
In test [21] the target is T3, rHuman Notch-1/Fc Chimera, CF (R&D …). The description is as above.
Test [22] deals with T4, rHuman HGF R/c-MET/Fc Chimera, CF (R&D …). The description is as above.
Test [23] has as its target T5, rHuman IGF-1 sR, CF (R&D Systems …). Described as above.
Test [24] concerns the target T6, Recombinant Human DLL4 (R&D Systems …). The test is described as above.
Test [25] deals with T7, rHuman EGF R/Fc Chimera, CF (R&D …). The test is described as above.
Test [26] deals with T8, rHuman ErbB2/Fc Chimera, CF (R&D …). The description is as above.
The target of test [27] is T9, rHuman CD44/Fc Chimera, CF (R&D Systems …). The test is described as above.
Test [28] concerns the target T1, rHuman P-Cadherin/Fc Chimera, CF (R&D …). In words: ECL Multispot (MSD) assay, antigen spotted on plate, 10 nM Fab; blank spot 322.
The target in test [29] is T2, rHuman Erythropoietin R/Fc Chimera, CF …. Described as above.
Test [30] addresses T3, rHuman Notch-1/Fc Chimera, CF (R&D …). The test is described as above.
The target in test [31] is T4, rHuman HGF R/c-MET/Fc Chimera, CF (R&D …). Described as above.
Test [32] addresses T5, rHuman IGF-1 sR, CF (R&D Systems …). The test is described as above.
For test [33], the target named is T6, Recombinant Human DLL4 (R&D Systems …). Described as above.
Test [34] deals with T7, rHuman EGF R/Fc Chimera, CF (R&D …). The description is as above.
Test [35] addresses T8, rHuman ErbB2/Fc Chimera, CF (R&D …). The test is described as above.
In test [36] the target is T9, rHuman CD44/Fc Chimera, CF (R&D Systems …). The test is described as above.

Substitutions are numbered along the chain they refer to. In names and notes the source's numbering stands.

T4 sequence (P08581 25-932, change not shown): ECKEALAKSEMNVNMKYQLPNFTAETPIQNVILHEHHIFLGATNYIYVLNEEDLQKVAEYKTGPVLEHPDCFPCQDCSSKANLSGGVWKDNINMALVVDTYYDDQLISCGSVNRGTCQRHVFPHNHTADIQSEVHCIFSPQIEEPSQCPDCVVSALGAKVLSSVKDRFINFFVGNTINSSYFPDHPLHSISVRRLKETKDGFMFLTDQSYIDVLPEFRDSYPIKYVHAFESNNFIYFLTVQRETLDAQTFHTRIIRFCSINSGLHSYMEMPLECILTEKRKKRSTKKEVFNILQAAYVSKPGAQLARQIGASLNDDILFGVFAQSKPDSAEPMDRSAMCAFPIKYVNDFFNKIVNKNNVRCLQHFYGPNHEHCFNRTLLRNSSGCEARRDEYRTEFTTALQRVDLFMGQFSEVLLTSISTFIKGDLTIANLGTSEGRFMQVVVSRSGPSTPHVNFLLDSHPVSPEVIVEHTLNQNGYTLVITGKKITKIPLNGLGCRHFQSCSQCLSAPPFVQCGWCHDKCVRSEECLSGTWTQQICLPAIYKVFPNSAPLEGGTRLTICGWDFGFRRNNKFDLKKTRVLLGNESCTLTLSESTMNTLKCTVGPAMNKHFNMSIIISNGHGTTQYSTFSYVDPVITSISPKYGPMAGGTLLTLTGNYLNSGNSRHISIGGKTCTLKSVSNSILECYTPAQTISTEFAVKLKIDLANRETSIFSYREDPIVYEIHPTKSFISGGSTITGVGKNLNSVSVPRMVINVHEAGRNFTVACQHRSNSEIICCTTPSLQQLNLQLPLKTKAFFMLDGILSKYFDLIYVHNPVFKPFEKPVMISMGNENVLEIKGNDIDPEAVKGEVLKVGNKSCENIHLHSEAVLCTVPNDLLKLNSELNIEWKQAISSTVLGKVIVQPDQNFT

B1: Fab VH1-46_IGHD6-6*01_IGHJ1*01 S102A/S103P/S104F/H111F S84H & L6_IGKJ1*01 (Fab, V domains shown)
VH: QVQLVQSGAEVKKPGASVKVSCKASGYTFTSYYMHWVRQAPGQGLEWMGIINPSGGSTSYAQKFQGRVTMTRDTSTSTVYMELHSLRSEDTAVYYCAREEYAPFSAEYFQFWGQGTLVTVSS
VL: not shown
notes: Fab expressed in E. coli: VH joined to CH1 from Plasmid A (with His6 and Flag tags), VL joined to kappa CL from Plasmid C; also called APFF S84H
Consider B1, for which the ECL signal in [1] stood at 319; in [2] it was 318; in test [3], 331; in test [4], 374; in [5], 353; in test [6] it was 138000. In addition, the values for the ECL signal in test [7], in test [8] and in [9] were 306, 301 and 382, respectively.

B2: Fab VH1-46_IGHD6-6*01_IGHJ1*01 S102A/S103P/S104F/H111F S84T & L6_IGKJ1*01 (Fab, V domains shown)
VH: B1 VH with H84T
VL: not shown
notes: Fab expressed in E. coli: VH joined to CH1 from Plasmid A (with His6 and Flag tags), VL joined to kappa CL from Plasmid C; also called APFF S84T
B2: the ECL signal in [10] turned out to be 180; in test [11], 328; in test [12], 372; in test [13], 274; in [14], 281; in [15], 163000. Besides, the ECL signal in test [16] is 293; in test [17], 297; in [18] it was 352.

B3: Fab VH1-46_IGHD6-6*01_IGHJ1*01 S102A/S103P/S104F/H111F S84K & L6_IGKJ1*01 (Fab, V domains shown)
VH: B1 VH with H84K
VL: not shown
notes: Fab expressed in E. coli: VH joined to CH1 from Plasmid A (with His6 and Flag tags), VL joined to kappa CL from Plasmid C; also called APFF S84K
In the case of B3, the ECL signal in test [19] turned out to be 517; in test [20], 528; in test [21], 400; in test [22] it was 317; in test [23], 405; in test [24], 164000. Also, the ECL signal in test [25] amounted to 301; in test [26] it was 354; in test [27], 386.

B4: Fab VH1-46_IGHD6-6*01_IGHJ1*01 S102A/S103P/S104F/H111F S84R & L6_IGKJ1*01 (Fab, V domains shown)
VH: B1 VH with H84R
VL: not shown
notes: Fab expressed in E. coli: VH joined to CH1 from Plasmid A (with His6 and Flag tags), VL joined to kappa CL from Plasmid C; also called APFF S84R
For B4, the ECL signal worked out at 310 in test [28]; 393 in test [29]; 377 in test [30]; 392 in test [31]; 395 in [32]; 139000 in test [33]. The ECL signal in [34] turned out to be 435; in test [35], 372; in [36] it was 335.
